Measurements taken from US20120253008A1 (Ablynx, published 2012).
Like-named read-outs stand apart in the source and are kept apart here. Values belong to the binder of their own block, whether it stands above or below them.

Key:
human serum albumin [1] = molecular target: T1, human serum albumin (human, UniProt P02768 25-609); test: phage competition ELISA: phage pre-incubated with 2 µM HSA, captured on coated HSA
T1 construct: also called HSA
Procedure: (§1) Unbound phage was captured by transferring 100 μl of the well mixture to the HSA coated Maxisorp plate and incubating at room temperature for 30 minutes. The plate with captured phage was washed with PBS-0.05% Tween 20 five times. Bound phages were detected with anti-M13 and goat-anti mouse IRDye conjugate. The amount of IRDye bound was measured on Odyssey (LI-COR Biosciences). The ratio of phage binding was calculated by the following equation: fluorescence signal of well with competitor/fluorescence signal of well with no competitor (Table III).
After respectively three and four selection rounds, monoclonal phage were screened for binding on HSA, in the manner described in Example 2. Clones that bind to HSA (FIGS. 7A to 7C and Table V) were screened in phage competition ELISA, in the manner described in Example 5. The ratio of phage binding was calculated by the following equation: fluorescence signal of well with 2 μM competitor/fluorescence signal of well with no competitor (Table VI).

von Willebrand factor = molecular target: T2, von Willebrand factor (human, UniProt P04275 764-2813); test: inhibition ELISA: ristocetin-induced binding of plasma vWF to fixed human platelets (glycoprotein Ib), bound vWF detected with anti-VWF-HRP
T2 construct: vWF of the human plasma in which the compounds were diluted; multimeric; also called vWF; VWF

[2] = molecular target: T3, cynomolgus monkey serum albumin (cynomolgus monkey, UniProt A2V9Z4 25-608); test: SPR, BIAcore 3000, CSA on CM5 chip
T3 construct: amine-coupled to a CM5 chip; also called CSA; cynoSA
Procedure: (§2) For this purpose, binding to HSA and CSA was assessed in BIAcore™ 3000, by injecting concentration series of the fusion proteins ranging from 2 μM to 200 nM on a CM5 chip coated with ˜3000 RU HSA or CSA. Coating of the chip (CM5) was performed by amine coupling using NHS/EDC for activation and ethanolamine for deactivation (Biacore amine coupling kit). HBS-EP was used as flow buffer at a rate of […]. 90 μl of sample was injected for 120 s.

human serum albumin [3] = molecular target: T1, human serum albumin; test: SPR, BIAcore 3000, HSA on CM5 chip
Procedure: as §2

human serum albumin [4] = molecular target: T1, human serum albumin; test: SPR, BIAcore 3000, HSA on CM5 chip; remark: listed apart in the source
Procedure: For this purpose, the fusion proteins were expressed in E. coli TG1 cells. […] Coating of the chip (CM5) was performed by amine coupling using NHS/EDC for activation and ethanolamine for deactivation (Biacore amine coupling kit). HBS-EP was used as flow buffer at a rate of 10 μl min-1. 20 μl of sample was injected for 120 s.

human serum albumin [5] = molecular target: T1, human serum albumin; test: phage ELISA, 5-fold phage dilutions on coated HSA, anti-M13 detection, near-infrared fluorescence
Procedure: 5-fold serial dilutions of phage clones (starting from ˜5×10¹¹ phage) were added to 96-well Nunc Maxisorp plates coated with human serum albumin (2 μg/ml in PBS, overnight at 4° C.; plates were blocked with Superblock T20 (Pierce) for 1 h at room temperature). […] The amount of IRDye bound was measured on Odyssey (LI-COR Biosciences). The dilution of phage was plotted against measured near-infrared fluorescence intensity (FIG. 2).

[6] = molecular target: T3, cynomolgus monkey serum albumin; test: SPR, BIAcore 3000, CSA on CM5 chip; remark: listed apart in the source
Procedure: as §2, with “The” for “For this purpose,”, “binding” for “binding to HSA and CSA”, “determined” for “assessed”

human serum albumin [7] = molecular target: T1, human serum albumin; test: solution binding competition ELISA: phage pre-incubated with 1 µM HSA, captured on coated HSA
Procedure: A competition ELISA was performed to determine the relative binding affinity for the selected phage clones. 96-well Nunc Maxisorp plates were coated with 2 μg/ml HSA in coating buffer at 4° C. Plates were blocked with SuperblockT20 (Pierce) for 1 h at room temperature. The microtiter plates were washed with wash buffer (PBS, 0.05% Tween 20).
as §1

T3 sequence (A2V9Z4 25-608 limits assumed): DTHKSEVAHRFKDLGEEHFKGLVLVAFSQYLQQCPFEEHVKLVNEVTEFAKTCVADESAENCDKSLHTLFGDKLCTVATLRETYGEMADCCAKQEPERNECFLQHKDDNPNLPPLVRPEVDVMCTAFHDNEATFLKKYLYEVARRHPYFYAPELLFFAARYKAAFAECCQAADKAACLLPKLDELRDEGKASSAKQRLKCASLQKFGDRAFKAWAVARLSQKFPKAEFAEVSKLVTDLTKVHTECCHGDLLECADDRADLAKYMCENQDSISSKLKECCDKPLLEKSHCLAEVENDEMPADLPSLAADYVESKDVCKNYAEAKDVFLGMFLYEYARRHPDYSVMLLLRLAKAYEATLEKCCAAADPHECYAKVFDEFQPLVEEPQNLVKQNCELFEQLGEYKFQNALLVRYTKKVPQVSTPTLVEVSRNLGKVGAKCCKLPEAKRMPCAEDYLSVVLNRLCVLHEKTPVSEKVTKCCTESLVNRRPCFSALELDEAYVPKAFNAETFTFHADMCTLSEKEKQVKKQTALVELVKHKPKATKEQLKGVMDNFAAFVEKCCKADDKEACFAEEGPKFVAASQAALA

B2: 59C2 (peptide)
peptide: AARDWDFDVFGGGTPVGG
Ratio 2 µM/0 µM HSA (human serum albumin [1]): 0.91

B4: 59F2 (peptide)
peptide: AARYWDFDVFGGGTPVGG
Ratio 2 µM/0 µM HSA (human serum albumin [1]): 0.69

B6: 12A2_sv1-AAA-12A2_sv1 (VHH)
chain: DVQLVESGGGLVQPGGSLRLSCAASGRTFSYNPMGWFRQAPGKGRELVAAISRTGGSTYYPESVEGRFTISRDNAKRTVYLQMNSLRAEDTAVYYCAAAGVRAEQGRVRTLPSEYTFWGQGTQVTVSSAAAEVQLVESGGGLVQPGGSLRLSCAASGRTFSYNPMGWFRQAPGKGRELVAAISRTGGSTYYPESVEGRFTISRDNAKRTVYLQMNSLRAEDTAVYYCAAAGVRAEQGRVRTLPSEYTFWGQGTQVTVSS
notes: also called vWF-001; vWF-0001
IC50 (read off the curve) (von Willebrand factor): ~10 nM

B7: 2D3-9GS-56E4-MycHis (other)
chain: EVQLVESGGSLVQPGGSLRLSCAASGFTFDDYAMSWVRQVPGKGLEWVSSINWSGTHTDYADSVKGRFTISRNNANNTLYLQMNSLKSEDTAVYYCAKNWRDAGTTWFEKSGSAGQGTQVTVSSGGGGSGGGSAAARYWDYDVFGGGTPVGGAAAEQKLISEEDLNGAAHHHHHH
Kd [2]: 2110 nM
kon [2]: 4010 M⁻¹ s⁻¹
Kd (human serum albumin [3]): 991 nM
koff (human serum albumin [3]): 0.00497 s⁻¹
kon (human serum albumin [3]): 5020 M⁻¹ s⁻¹

B8: 2D3-9GS-59F2-MycHis (other)
chain: EVQLVESGGSLVQPGGSLRLSCAASGFTFDDYAMSWVRQVPGKGLEWVSSINWSGTHTDYADSVKGRFTISRNNANNTLYLQMNSLKSEDTAVYYCAKNWRDAGTTWFEKSGSAGQGTQVTVSSGGGGSGGGSAAARYWDFDVFGGGTPVGGAAAEQKLISEEDLNGAAHHHHHH
Kd [2]: 1040 nM
kon [2]: 4850 M⁻¹ s⁻¹
Kd (human serum albumin [3]): 571 nM
koff (human serum albumin [3]): 0.00351 s⁻¹
kon (human serum albumin [3]): 6140 M⁻¹ s⁻¹

B9: 2D3-56H5 fusion protein (other)
chain: EVQLVESGGSLVQPGGSLRLSCAASGFTFDDYAMSWVRQVPGKGLEWVSSINWSGTHTDYADSVKGRFTISRNNANNTLYLQMNSLKSEDTAVYYCAKNWRDAGTTWFEKSGSAGQGTQVTVSSGGGGSGGGSAAAFYDDYDVFGGGTPAGGAAAEQKLISEEDLNGAAHHHHHH
Kd (human serum albumin [4]): ~1200 nM
koff (human serum albumin [4]): 0.0093 s⁻¹
kon (human serum albumin [4]): 7570 M⁻¹ s⁻¹

B10: 2D3-9GS-59H12-MycHis (other)
chain: EVQLVESGGSLVQPGGSLRLSCAASGFTFDDYAMSWVRQVPGKGLEWVSSINWSGTHTDYADSVKGRFTISRNNANNTLYLQMNSLKSEDTAVYYCAKNWRDAGTTWFEKSGSAGQGTQVTVSSGGGGSGGGSAAARSWDFDVFGGGTPVGGAAAEQKLISEEDLNGAAHHHHHH
Kd [2]: 1280 nM
kon [2]: 3450 M⁻¹ s⁻¹
Kd (human serum albumin [3]): 663 nM
koff (human serum albumin [3]): 0.00304 s⁻¹
kon (human serum albumin [3]): 4590 M⁻¹ s⁻¹

B11: 2D3-9GS-59C2-MycHis (other)
chain: EVQLVESGGSLVQPGGSLRLSCAASGFTFDDYAMSWVRQVPGKGLEWVSSINWSGTHTDYADSVKGRFTISRNNANNTLYLQMNSLKSEDTAVYYCAKNWRDAGTTWFEKSGSAGQGTQVTVSSGGGGSGGGSAAARDWDFDVFGGGTPVGGAAAEQKLISEEDLNGAAHHHHHH
Kd [2]: 775 nM
kon [2]: 2750 M⁻¹ s⁻¹
Kd (human serum albumin [3]): 481 nM
koff (human serum albumin [3]): 0.00179 s⁻¹
kon (human serum albumin [3]): 3730 M⁻¹ s⁻¹

B14: 2D3-9GS-56E4 (other)
chain: EVQLVESGGSLVQPGGSLRLSCAASGFTFDDYAMSWVRQVPGKGLEWVSSINWSGTHTDYADSVKGRFTISRNNANNTLYLQMNSLKSEDTAVYYCAKNWRDAGTTWFEKSGSAGQGTQVTVSSGGGGSGGGSRYWDYDVFGGGTPVGG
notes: untagged; Nanobody 2D3, 9GS linker, 56E4 without the two N-terminal alanines; also called 2D3-9GS-EXP56E4
Kd [6]: 495 nM
kon [6]: 17100 M⁻¹ s⁻¹

B15: 2D3-9GS-59C2 (other)
chain: EVQLVESGGSLVQPGGSLRLSCAASGFTFDDYAMSWVRQVPGKGLEWVSSINWSGTHTDYADSVKGRFTISRNNANNTLYLQMNSLKSEDTAVYYCAKNWRDAGTTWFEKSGSAGQGTQVTVSSGGGGSGGGSRDWDFDVFGGGTPVGG
notes: untagged; also called 2D3-9GS-EXP59C2; 2D3-EXP59C2
Kd [6]: 276 nM
kon [6]: 8980 M⁻¹ s⁻¹

B16: 12A2 sv1-AAA-12A2 sv1-9GS-59C2-9GS-59C2 (VHH)
chain: DVQLVESGGGLVQPGGSLRLSCAASGRTFSYNPMGWFRQAPGKGRELVAAISRTGGSTYYPESVEGRFTISRDNAKRTVYLQMNSLRAEDTAVYYCAAAGVRAEQGRVRTLPSEYTFWGQGTQVTVSSAAAEVQLVESGGGLVQPGGSLRLSCAASGRTFSYNPMGWFRQAPGKGRELVAAISRTGGSTYYPESVEGRFTISRDNAKRTVYLQMNSLRAEDTAVYYCAAAGVRAEQGRVRTLPSEYTFWGQGTQVTVSSGGGGSGGGSRDWDFDVFGGGTPVGGGGGGSGGGSRDWDFDVFGGGTPVGG
notes: also called vWF-0056; VWF0056
IC50 (read off the curve) (von Willebrand factor): ~20 nM

B18: PMP56A3 (peptide)
peptide: AALYDDYDVFGGGTPVGG
notes: also called 01C7; PMP26A3
Ratio 1 µM/0 µM HSA (human serum albumin [7]): 0.47

B19: 01B3 (peptide)
peptide: AALYDDYDVFGGGTPAGG
Ratio 1 µM/0 µM HSA (human serum albumin [7]): 0.42

Other lines, results leading:

Ratio 2 µM/0 µM HSA (human serum albumin [1]): 0.82
B1: PMP56E4 (peptide)
peptide: AARYWDYDVFGGGTPVGG
notes: also called EXP56E4

Ratio 2 µM/0 µM HSA (human serum albumin [1]): 0.87
B3: 59H12 (peptide)
peptide: AARSWDFDVFGGGTPVGG

binding result (von Willebrand factor): binds
B5: vWF0054 (VHH)
single chain fusion protein: DVQLVESGGGLVQPGGSLRLSCAASGRTFSYNPMGWFRQAPGKGRELVAAISRTGGSTYYPESVEGRFTISRDNAKRTVYLQMNSLRAEDTAVYYCAAAGVRAEQGRVRTLPSEYTFWGQGTQVTVSSGGGGSGGGSRDWDFDVFGGGTPVGGGGGGSGGGSRDWDFDVFGGGTPVGGGGGGSGGGSEVQLVESGGGLVQPGGSLRLSCAASGRTFSYNPMGWFRQAPGKGRELVAAISRTGGSTYYPESVEGRFTISRDNAKRTVYLQMNSLRAEDTAVYYCAAAGVRAEQGRVRTLPSEYTFWGQGTQVTVSS
notes: also called 12A2 sv1-9GS-59C2-9GS-59C2-9GS-12A2 sv1

binding result (human serum albumin [5]): binds
B12: 17D12 (peptide)
peptide: AASYSDYDVFGGGTDFGP

binding result (human serum albumin [5]): binds
B13: PMP56E2 (peptide)
peptide: AAYYYDYDVFGGGTPGGE

binding result (von Willebrand factor): binds
B17: 12A2 sv1-9GS-59C2-9GS-12A2 sv1 (VHH)
chain: DVQLVESGGGLVQPGGSLRLSCAASGRTFSYNPMGWFRQAPGKGRELVAAISRTGGSTYYPESVEGRFTISRDNAKRTVYLQMNSLRAEDTAVYYCAAAGVRAEQGRVRTLPSEYTFWGQGTQVTVSSGGGGSGGGSRDWDFDVFGGGTPVGGGGGGSGGGSEVQLVESGGGLVQPGGSLRLSCAASGRTFSYNPMGWFRQAPGKGRELVAAISRTGGSTYYPESVEGRFTISRDNAKRTVYLQMNSLRAEDTAVYYCAAAGVRAEQGRVRTLPSEYTFWGQGTQVTVSS
notes: also called vWF-0053; vWF 0053

Ratio 1 µM/0 µM HSA (human serum albumin [7]): 0.43
B20: PMP56H5 (peptide)
peptide: AAFYDDYDVFGGGTPAGG
notes: also called 01G7

binding result (human serum albumin [5]): binds
B21: PMP56F2 (peptide)
peptide: AAPYRDYDVFGGGTPRGE
